Reference: patent US20220073621A1 (EUCURE BEIJING BIOPHARMA, published 2022)
Where a chain is given by its changes, count along the chain named.

T1: human-mouse chimeric PD-L1 on CHO cells (human-mouse chimeric, UniProt Q9EP73 19-290 (mouse entry))
T1 construct: expressed in CHO cells; also called chiPD-L1
T1 chain: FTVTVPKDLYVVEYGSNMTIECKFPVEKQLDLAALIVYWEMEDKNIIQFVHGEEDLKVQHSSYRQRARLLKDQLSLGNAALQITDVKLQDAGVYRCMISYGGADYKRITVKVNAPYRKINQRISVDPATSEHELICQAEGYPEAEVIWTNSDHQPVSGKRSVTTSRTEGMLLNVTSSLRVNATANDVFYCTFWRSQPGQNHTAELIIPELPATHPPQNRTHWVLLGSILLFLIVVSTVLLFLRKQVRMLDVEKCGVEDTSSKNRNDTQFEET

T2: Rhesus monkey PD-L1 on CHO cells (rhesus monkey, UniProt Q9NZQ7 19-290 (human entry))
T2 construct: Expressed in CHO cells for the cross-reactivity test; also called rmPD-L1; NP_001077358.1
T2 chain: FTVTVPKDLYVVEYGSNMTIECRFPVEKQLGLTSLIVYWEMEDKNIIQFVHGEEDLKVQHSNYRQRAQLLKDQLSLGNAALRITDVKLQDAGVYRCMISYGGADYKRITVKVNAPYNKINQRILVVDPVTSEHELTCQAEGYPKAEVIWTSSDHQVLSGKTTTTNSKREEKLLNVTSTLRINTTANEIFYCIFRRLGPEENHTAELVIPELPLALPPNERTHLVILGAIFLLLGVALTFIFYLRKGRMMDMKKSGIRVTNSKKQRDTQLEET

B1: 08-3F2 (antibody, V domains shown)
VH: DVQLQESGPDLVKPSQTLSLTCTVTGYSITSGYNWHWIRQFPGNKLEWMGYIHHSSITNYNPSLKSRISITRDTSKNQFFLQLSSVTTEDTATFYCAREGYDYDWFAYWGQGTLVTVSA
VL: DIVLAQSPATLSVTPGDSVSLSCRASQSISNNLHWYQQKSHESPRLLIKYASQSISGIPSRFSGSGSGTDFTLSINSVETEDFGMYFCQQSKSWPFTFGSGTRLEIK
notes: Murine monoclonal antibody from hybridoma, purified from ascites
B2: 17-7E4 (antibody, V domains shown)
VH: QVQLQQSGAELVRPGVSVKISCKGSGFKFTDYAIHWVKQSHAKSLEWIGVISIYYGEASYNQKFKDKATLTVDTSSSTAYMELARLTSEDSAIYYCAREDYYGSSSYFDYWGQGTALTVSS
VL: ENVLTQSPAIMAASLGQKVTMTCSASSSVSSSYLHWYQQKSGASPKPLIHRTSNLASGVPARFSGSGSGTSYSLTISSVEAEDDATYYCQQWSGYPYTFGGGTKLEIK
notes: as for B1
B3: 07-6A11 (antibody, V domains shown)
VH: DVQLVESGGGLVQPGGSRKLSCAASGFTFSSFGMHWVRQAPEKGLEWVAYISSGSNTIYYADTVKGRFTISRDNPKNTLFLQMTSLRSEDTAIYYCTRNGYDGWYAMDYWGQGTSVTVSS
VL: QIVLTQSPAIMSASPGEKVTMTCSASSSVSYIHWFQQKSGTSPKRWIYDTSKLASGVPARFSGRGSGTSYSLTISSMEAEDAATYYCQQWSTNPFTFGSGTKLEIK
notes: as for B1
B4: 7E4-H2K2-IgG1 (antibody, V domains shown)
VH: QVQLVQSGAEVKKPGASVKVSCKASGFKFTDYAIHWVRQAPGKSLEWMGVISIYYGEASYNQKFKDRVTLTVDTSASTAYMELSSLRSEDTAVYYCAREDYYGSSSYFDYWGQGTLVTVSS
VL: DNVLTQSPSFLSASVGDRVTMTCSASSSVSSSYLHWYQQKPGASPKPLIHRTSNLASGVPSRFSGSGSGTEFTLTISSLQPEDFATYYCQQWSGYPYTFGGGTKLEIK
B5: 7E4-H1K3-IgG1 (antibody, V domains shown)
VH: B4 VH with K43Q
VL: B4 VL with D1E, P41S, F72Y, L79V
B6: 7E4-H2K1-IgG1 (antibody, V domains shown)
VH: B4 VH
VL: B4 VL with V3Q, M21I, S44A
B7: 7E4-H1K2-IgG1 (antibody, V domains shown)
VH: B4 VH with K43Q
VL: B4 VL
B8: 7E4-H3K1-IgG1 (antibody, V domains shown)
VH: B4 VH with K12V, V20I, A24G, R67K, V93I, V117L
VL: B4 VL with V3Q, M21I, S44A
B9: 7E4-H1K1-IgG1 (antibody, V domains shown)
VH: B4 VH with K43Q
VL: B4 VL with V3Q, M21I, S44A
B10: 7E4-H2K3-IgG1 (antibody, V domains shown)
VH: B4 VH
VL: B4 VL with D1E, P41S, F72Y, L79V
B11: 7E4-H3K3-IgG1 (antibody, V domains shown)
VH: B4 VH with K12V, V20I, A24G, R67K, V93I, V117L
VL: B4 VL with D1E, P41S, F72Y, L79V
B12: 7E4-H3K2-IgG1 (antibody, V domains shown)
VH: B4 VH with K12V, V20I, A24G, R67K, V93I, V117L
VL: B4 VL
B13: 6A11-H4K4-IgG1 (antibody, V domains shown)
VH: B3 VH with D1E, K19R, E42G, T78S, F80Y, T84N, S88A, S115T
VL: EIVLTQSPATLSASPGERATLSCSASSSVSYIHWFQQKPGQSPRRWIYDTSKLASGIPARFSGSGSGTSYTLTISSMEPEDAATYYCQQWSTNPFTFGQGTKLEIKR
B14: 6A11-H4K3-IgG1 (antibody, V domains shown)
VH: B3 VH with D1E, K19R, E42G, T78S, F80Y, T84N, S88A, S115T
VL: B13 VL with S69D, A82F
B15: 23-2A6-mHvKv-IgG1 (antibody, V domains shown)
VH: QVQLKESGPGLVAPSQSLSITCTVSGFSLTSYDISWIRQPPGKGLEWLGAIWTGGGTNYNSAFMSRLSISKDNSKSQVFLKMNSLQTDDTAIYYCVRDPYYYAMDYWGQGTSVTVSS
VL: DIQMNQSPSSLSASLGDTITITCHASQNLNVWLSWYQQKPGNIPKLLIYKASNLHTGVPSRFSGSGSGTGFTLTISSLQPEDIATYYCQQGQSYPRTFGGGTKLEIK
B16: 24-1F4-mHvKv-IgG1 (antibody, V domains shown)
VH: EVQLRESGPSLVRPSQTLSLTCSVTGDSFTSGYWNWIRKFPGNELESMGYISYSGSTYYNPSLKSRISITRDTSKSQFYLQLSSVTAEDTATYYCARSEGWLLPFAYWGQGTLVTVSA
VL: DIVMSQSPSSLPVSVGEKVTMSCKSSQSLLYSSNQKNSLAWYQQKPGQSPKLLIYWASTRESGVPDRFTGSGSGTDFTLTISSVQAEDLSVYYCQQYYGYPFTFGSGTKLEIK
B17: 23-4A8-mHvKv-IgG1 (antibody, V domains shown)
VH: EVQLQESGPSLVKPSQTLSLTCSVTGDSITSGYWNWIRKFPGNKLEYMGYISYTGSTYYNPSLKSRFSITRDTSKNQYFLQLNSVTTEDTATYYCASYEGWLLPFAYWGQGTLVTVSA
VL: B16 VL with P12A, T20P, M21L, N37S, Q85K, S90A
B18: 33-10C9-mHvKv-IgG1 (antibody, V domains shown)
VH: QVQLQQPGAELVKPGSSVKLSCKASGYTFTTYYIYWVKQRPGQGLEWIGGINPYNGGTSFNEKFESKATLTVDISSSTAFMQLSSLTSEDSAVYYCTRDGNYVDYWGQGTTLTVSS
VL: QIVLTQSPAIMSASPGEKVTITCSASSTVSYVHWLQQKPDTSPKLWIYSTSNLASGVPARFSGSGSGTSYSLTISRMEAEDAATYYCQQRSSSPPTFGSGTKLEIK

Target: T1, human-mouse chimeric PD-L1 on CHO cells
Experiment: flow cytometry, CHO-chiPD-L1 cells, Anti-mouse-IgGFc-FITC, antibody 1 µg/ml
Excerpt: (§1) The rhesus monkey PD-L1 protein coding sequence (rmPD-L1, SEQ ID NO: 54), the mouse PD-L1 protein coding sequence (mPD-L1, SEQ ID NO: 53), and the human-mouse chimeric PD-L1 (the extracellular region of the mouse PD-L1 protein was replaced with human protein fragments) protein coding sequence (chiPD-L1, SEQ ID NO: 55) were transferred into CHO cells for protein expression and used for the antibody cross-reactivity testing.
(§2) The test was detailed as follows: a 96-well cell culture plate was used, and the above-mentioned CHO cells expressing different PD-L1 proteins (25 μl, 2×10⁴ cells/well) was added to each well, and then 25 μl of the ascites purified anti-PD-L1 antibodies (1 μg/ml) were added to each well. The mixture was incubated at 4° C. for 30 minutes. The 96-well cell culture plate was centrifuged at 1200 rpm for 5 minutes and washed twice with PBS. Subsequently, 50 μl of anti-mouse IgG Fc-FITC at 1:100 dilution was added to each well, and was incubated at 4° C. for 30 minutes. Subsequently, the 96-well cell culture plate was centrifuged at 1200 rpm for 5 minutes, and washed once with PBS. Then 200 μl of PBS was added to each well, and flow cytometry analysis was performed.

| Binder | % cells in the FITC-positive gate |
| --- | --- |
| B1 | 88.3% |
| B2 | 67.8% |
| B3 | 77.4% |

target: T3, Mouse PD-L1 on CHO cells (mouse, UniProt Q9EP73 19-290); experiment: flow cytometry, CHO-mPD-L1 cells, Anti-mouse-IgGFc-FITC, antibody 1 µg/ml
T3 construct: Expressed in CHO cells for the cross-reactivity test; also called mPD-L1; murine PD-L1 protein
Excerpt: as §1, §2

| Binder | % cells in the FITC-positive gate |
| --- | --- |
| B1 | 7.37% |
| B2 | 1.1% |
| B3 | 4.56% |

target: T4, hPD-L1-His (human, UniProt Q9NZQ7 19-238); experiment: SPR (Biacore T200), antibody on Protein A chip, hPD-L1-His injected, 1:1 fit
T4 construct: Bought protein; also called hPD-L1-His (manufactured by Edison); not shown: His tag
Method: Subsequently, the binding affinity of the anti-PD-L1 chimeric antibody, humanized antibody, and marketed control antibody to hPD-L1-His (manufactured by Edison) were determined by surface plasmon resonance (Biacore T200 biosensor, Biacore, INC, Piscataway N.J.) equipped with pre-immobilized Protein A sensor chips.
The detection results were read after the chip was regenerated with pH 2.0 glycine (30 μl/min, 10-20 s). Kinetic association rates (kon) and dissociation rates (koff) were obtained simultaneously by fitting the data globally to a 1:1 Langmuir binding model (Karlsson, R. Roos, H. Fagerstam, L. Petersson, B., 1994. Methods Enzymology 6. 99-110) using Biacore T200 Evaluation Software 3.0. Affinities were deduced from the quotient of the kinetic rate constants (KD=koff/kon).

T4 sequence (Q9NZQ7 19-238 limits assumed): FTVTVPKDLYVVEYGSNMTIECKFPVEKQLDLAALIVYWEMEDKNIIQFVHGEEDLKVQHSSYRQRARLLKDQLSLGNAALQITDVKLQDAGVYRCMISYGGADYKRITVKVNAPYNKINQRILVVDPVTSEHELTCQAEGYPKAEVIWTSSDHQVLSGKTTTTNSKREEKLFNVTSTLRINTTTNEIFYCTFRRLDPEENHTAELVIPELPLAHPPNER

| Binder | Kd | koff | kon |
| --- | --- | --- | --- |
| B4 | 21.9 nM | 0.0027 s⁻¹ | 123000 M⁻¹ s⁻¹ |
| B5 | 13.3 nM | 0.0017 s⁻¹ | 128000 M⁻¹ s⁻¹ |
| B6 | 27 nM | 0.00344 s⁻¹ | 128000 M⁻¹ s⁻¹ |
| B7 | 19.8 nM | 0.0025 s⁻¹ | 126000 M⁻¹ s⁻¹ |
| B8 | 23.9 nM | 0.00352 s⁻¹ | 147000 M⁻¹ s⁻¹ |
| B9 | 26.5 nM | 0.00313 s⁻¹ | 118000 M⁻¹ s⁻¹ |
| B10 | 12.7 nM | 0.00163 s⁻¹ | 128000 M⁻¹ s⁻¹ |
| B11 | 14.5 nM | 0.00218 s⁻¹ | 150000 M⁻¹ s⁻¹ |
| B12 | 19.3 nM | 0.00299 s⁻¹ | 155000 M⁻¹ s⁻¹ |
| B13 | 9.59 nM | 0.002 s⁻¹ | 208000 M⁻¹ s⁻¹ |
| B14 | 7.09 nM | 0.00165 s⁻¹ | 233000 M⁻¹ s⁻¹ |

target: T3, Mouse PD-L1 on CHO cells; experiment: flow cytometry on CHO cells expressing mPD-L1
Excerpt: as §1, §2

| Binder | binding result |
| --- | --- |
| B15 | no binding (tested: 1 µg/ml) |
| B1 | no binding (tested: 1 µg/ml) |
| B2 | no binding (tested: 1 µg/ml) |
| B16 | no binding (tested: 1 µg/ml) |
| B17 | no binding (tested: 1 µg/ml) |
| B3 | no binding (tested: 1 µg/ml) |
| B18 | no binding (tested: 1 µg/ml) |

Target: T2, Rhesus monkey PD-L1 on CHO cells
Experiment: flow cytometry, CHO-rmPD-L1 cells, Anti-mouse-IgGFc-FITC, antibody 1 µg/ml
Excerpt: as §1, §2

| Binder | % cells in the FITC-positive gate |
| --- | --- |
| B1 | 60.9% |
| B2 | 64.9% |
| B3 | 51.4% |

target: T3, Mouse PD-L1 on CHO cells; experiment: flow cytometry, CHO-mPD-L1 cells, Anti-human IgG Fc-FITC, antibody 1 µg/ml
Target sequence in this assay (Q9EP73 19-290 limits assumed): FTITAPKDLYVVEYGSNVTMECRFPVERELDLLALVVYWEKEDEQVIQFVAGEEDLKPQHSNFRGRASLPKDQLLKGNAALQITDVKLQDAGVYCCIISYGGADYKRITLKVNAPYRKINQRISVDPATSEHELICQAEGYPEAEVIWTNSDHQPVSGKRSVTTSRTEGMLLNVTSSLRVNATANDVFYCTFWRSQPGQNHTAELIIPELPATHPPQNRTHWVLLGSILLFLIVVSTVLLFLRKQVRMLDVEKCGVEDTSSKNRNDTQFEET

| Binder | % cells in the FITC-positive gate |
| --- | --- |
| B15 | 0.886% |
| B16 | 15.5% |
| B17 | 3.07% |
| B18 | 0.556% |
